In patent publication US20120301433A1, “BACTERIOPHAGES EXPRESSING AMYLOID PEPTIDES AND USES THEREOF” (priority 2009, published 2012):

Biological target: amyloid-b1-42 peptide (UniProt P05067)
Test: cell-based or functional assay

Chain of T7-RRR-CsgB133-142-PPP (P19727 1-348, tags or fused parts left off): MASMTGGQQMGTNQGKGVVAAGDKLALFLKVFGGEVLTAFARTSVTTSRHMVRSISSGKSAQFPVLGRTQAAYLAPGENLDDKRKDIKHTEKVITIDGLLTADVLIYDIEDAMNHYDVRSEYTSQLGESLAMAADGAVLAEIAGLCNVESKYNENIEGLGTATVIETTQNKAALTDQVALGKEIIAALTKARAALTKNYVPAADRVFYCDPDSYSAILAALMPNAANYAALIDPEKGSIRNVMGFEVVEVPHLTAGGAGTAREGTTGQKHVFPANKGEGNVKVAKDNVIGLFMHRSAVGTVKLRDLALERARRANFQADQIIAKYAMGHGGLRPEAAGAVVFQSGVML
Chain of amyloid-b1-42 peptide (P05067 672-713 limits assumed): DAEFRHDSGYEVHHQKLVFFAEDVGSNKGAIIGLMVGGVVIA

T7-RRR-CsgB133-142-PPP (from UniProt P19727 1-348)
Aβ:peptide molar ratio at the doubling of the lag time: 70000
phage concentration that doubles the lag time of Aβ fiber formation: 5e+07 PFU/mL
